The numbers were not newly measured in paper PMC3253530, which cites them from elsewhere.

Where two headings read alike, the source gives them in different places.

Data set [1] addresses PTPζ (Homo sapiens) (UniProt P23471).
Another data set has as its target LRP-1 (Homo sapiens) (UniProt Q07954).
Data set [2] deals with PTPζ (Homo sapiens) (UniProt P23471). This is another data set of the same source.

Sequence of UniProt P23471 (P23471 25-1636): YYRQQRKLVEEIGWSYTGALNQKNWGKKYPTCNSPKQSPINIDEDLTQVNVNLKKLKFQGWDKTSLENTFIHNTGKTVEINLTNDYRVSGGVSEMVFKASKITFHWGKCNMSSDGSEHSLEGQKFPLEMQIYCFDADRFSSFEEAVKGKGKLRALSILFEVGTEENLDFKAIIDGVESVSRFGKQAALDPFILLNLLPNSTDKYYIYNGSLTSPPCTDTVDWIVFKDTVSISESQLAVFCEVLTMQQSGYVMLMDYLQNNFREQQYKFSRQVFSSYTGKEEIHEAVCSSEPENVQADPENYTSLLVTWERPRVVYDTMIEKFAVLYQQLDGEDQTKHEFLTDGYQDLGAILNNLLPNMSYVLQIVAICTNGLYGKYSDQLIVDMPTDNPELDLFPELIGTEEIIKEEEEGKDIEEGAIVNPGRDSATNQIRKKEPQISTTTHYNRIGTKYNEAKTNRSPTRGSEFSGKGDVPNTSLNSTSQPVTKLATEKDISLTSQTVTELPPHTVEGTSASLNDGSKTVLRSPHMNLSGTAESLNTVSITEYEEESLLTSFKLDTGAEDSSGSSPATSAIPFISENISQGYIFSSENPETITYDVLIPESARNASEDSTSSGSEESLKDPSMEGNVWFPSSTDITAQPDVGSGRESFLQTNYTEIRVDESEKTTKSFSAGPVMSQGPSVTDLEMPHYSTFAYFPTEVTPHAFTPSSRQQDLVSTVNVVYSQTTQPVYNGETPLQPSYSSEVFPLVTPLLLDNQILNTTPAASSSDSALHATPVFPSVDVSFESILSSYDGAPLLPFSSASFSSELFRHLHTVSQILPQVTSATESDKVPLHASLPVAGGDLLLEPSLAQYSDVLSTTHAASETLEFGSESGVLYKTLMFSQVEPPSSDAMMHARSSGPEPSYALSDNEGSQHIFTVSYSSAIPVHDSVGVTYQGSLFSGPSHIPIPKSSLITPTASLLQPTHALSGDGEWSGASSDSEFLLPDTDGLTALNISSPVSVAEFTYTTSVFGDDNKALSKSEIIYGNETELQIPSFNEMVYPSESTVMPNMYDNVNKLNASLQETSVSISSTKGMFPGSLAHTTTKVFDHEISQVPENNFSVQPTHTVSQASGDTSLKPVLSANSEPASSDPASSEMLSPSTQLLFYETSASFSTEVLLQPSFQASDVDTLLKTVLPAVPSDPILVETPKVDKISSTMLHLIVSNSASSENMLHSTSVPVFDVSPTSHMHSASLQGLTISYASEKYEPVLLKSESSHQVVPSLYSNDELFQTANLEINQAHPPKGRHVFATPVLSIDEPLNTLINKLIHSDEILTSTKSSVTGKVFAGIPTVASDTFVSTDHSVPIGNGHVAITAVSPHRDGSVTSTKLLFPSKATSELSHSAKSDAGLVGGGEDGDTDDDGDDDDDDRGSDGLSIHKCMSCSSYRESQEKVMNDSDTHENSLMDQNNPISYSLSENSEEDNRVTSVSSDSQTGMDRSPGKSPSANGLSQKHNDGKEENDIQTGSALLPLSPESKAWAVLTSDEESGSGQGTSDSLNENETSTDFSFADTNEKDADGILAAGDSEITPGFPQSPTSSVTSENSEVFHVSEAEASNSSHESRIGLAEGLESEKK

In general, Kd refers to the free concentration of one partner at which half of the binding sites on the other are occupied at equilibrium, for simple one-to-one binding. As to Midkine (from UniProt P21741), the Kd is 0.56 nM with PTPζ (Homo sapiens) [1], 3.5 nM with LRP-1 (Homo sapiens) and 8.8 nM with PTPζ (Homo sapiens) [2].
